According to article PMC10767048 (Nature Communications, 2024):

Target: T1, bovine serum albumin (Bos taurus, UniProt P02769)
T1 construct: also called BSA
Assay: ELISA
Settings: both partners purified

T1 sequence (P02769 25-607): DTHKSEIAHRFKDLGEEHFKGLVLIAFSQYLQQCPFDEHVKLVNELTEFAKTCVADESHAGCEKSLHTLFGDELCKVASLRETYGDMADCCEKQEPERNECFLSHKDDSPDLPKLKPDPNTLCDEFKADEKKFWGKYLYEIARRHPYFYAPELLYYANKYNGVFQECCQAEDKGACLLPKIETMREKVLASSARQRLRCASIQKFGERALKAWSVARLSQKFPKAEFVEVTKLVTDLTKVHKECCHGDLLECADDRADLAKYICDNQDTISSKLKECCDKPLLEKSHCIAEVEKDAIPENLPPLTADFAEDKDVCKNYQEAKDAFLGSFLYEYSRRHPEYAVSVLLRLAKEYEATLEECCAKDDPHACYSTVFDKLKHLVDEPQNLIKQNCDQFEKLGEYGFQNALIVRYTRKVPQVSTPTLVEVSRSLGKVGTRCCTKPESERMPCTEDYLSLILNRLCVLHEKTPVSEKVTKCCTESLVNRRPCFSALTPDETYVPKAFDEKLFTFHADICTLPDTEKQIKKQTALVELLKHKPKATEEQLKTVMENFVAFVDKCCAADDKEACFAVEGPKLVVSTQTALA

B1: nanobody D5 (camel VHH) (VHH)
VHH: AWQLVESGGGSVQPGGSLTLTCQASKSTFSTSGMRWERQAQGKGVEFVADISSDSTRKWYSDSVKGRFTISRSNWWRTVTLQMNDLKPEDTARYYCKDLESHHLRGQGTQVTVSS
notes: source: E. coli HB2151 (pComb3x phagemid), released with polymyxin B, purified (HisTrap)
  binding result: no binding (tested: 1 μg/ml)
